The values below come from doi:10.1101/2020.02.06.938233 (bioRxiv, 2020).

The data set concerns the molecule itself. The data set is described as follows: FRET or BRET. On the technique in general: BRET reads energy transfer from a luciferase to a nearby fluorophore.

B1: UL44(2-433), wild type, as CFP, YFP or RLuc fusion in HEK 293T cells (natural protein)
chain: DRKTRLSEPPTLALRLKPYKTAIQQLRSVIRALKENTTVTFLPTPSLILQTVRSHCVSKITFNSSCLYITDKSFQPKTINNSTPLLGNFMYLTSSKDLTKFYVQDISDLSAKISMCAPDFNMEFSSACVHGQDIVRESENSAVHVDLDFGVVADLLKWIGPHTRVKRNVKKAPCPTGTVQILVHAGPPAIKFILTNGSELEFTANNRVSFHGVKNMRINVQLKNFYQTLLNCAVTKLPCTLRIVTEHDTLLYVASRNGLFAVENFLTEEPFQRGDPFDKNYVGNSGKSRGGGGGGGSLSSLANAGGLHDDGPGLDNDLMNEPMGLGGLGGGGGGGGKKHDRGGGGGSGTRKMSSGGGGGDHDHGLSSKEKYEQHKITSYLTSKGGSGGGGGGGGGGLDRNSGNYFNDAKEESDSEDSVTFEFVPNTKKQKCG
As to B1, the BRET ratio was 0.36 ± 0.1.
